Values joined by “and” are separate entries in the source; they are usually repeats but may differ in a detail not shown here. Identical values can stand only once.
Assays:
[1] = molecular target: His-FakB2 (fatty acid binding protein FakB2, Staphylococcus aureus) (S. aureus); experiment: BLI; Octet RED96e; His-FakB2 (2 ug/mL) immobilised on Ni-NTA biosensor tips, blocked with 0.1 mg/mL BSA; untagged FakA 1.65-133.3 nM in solution, 5 min association, 10 min dissociation; 50 mM Tris HCl pH 7.4, 150 mM KCl, 1 mM TCEP, 5% glycerol, 10 mM MgCl2; 1:1 binding model (1 FakB2:1 FakA binding site)
[2] = molecular target: FakA H282A, H284A variant (Staphylococcus aureus) (S. aureus); experiment: mass photometry; kinetic mass photometry, 20 min after dilution to 10 nM (equilibrium); room temperature; 50 mM Tris pH 7.4, 150 mM KCl, 1 mM TCEP, 10 uM ZnSO4; dimer to monomers
[3] = molecular target: FakA H282A, H284A variant (Staphylococcus aureus) (S. aureus); experiment: mass photometry; kinetic mass photometry, initial reading (0 min) after dilution to 10 nM; room temperature; 50 mM Tris pH 7.4, 150 mM KCl, 1 mM TCEP, 10 uM ZnSO4; dimer to monomers
[4] = molecular target: Fatty acid kinase FakA, wild type (Staphylococcus aureus) (S. aureus); experiment: mass photometry; kinetic mass photometry, 20 min after dilution to 10 nM (equilibrium); room temperature; 50 mM Tris pH 7.4, 150 mM KCl, 1 mM TCEP, 10 uM ZnSO4; dimer to monomers
[5] = molecular target: Fatty acid kinase FakA, wild type (Staphylococcus aureus) (S. aureus); experiment: SEC-SAXS; size-exclusion chromatography coupled with small-angle X-ray scattering of FakA in solution; AlphaFold dimer model refined with BilboMD, envelopes by DAMMIF and DENSS
[6] = molecular target: Fatty acid kinase FakA, wild type (Staphylococcus aureus) (S. aureus); experiment: mass photometry; kinetic mass photometry, initial reading (0 min) after dilution to 10 nM; room temperature; 50 mM Tris pH 7.4, 150 mM KCl, 1 mM TCEP, 10 uM ZnSO4; dimer to monomers
[7] = molecular target: His-tagged FakB2 (Staphylococcus aureus) (S. aureus); experiment: BLI; additional studies as a1 but FakB loaded at a range of 2 to 20 ug/mL
[8] = molecular target: His-tagged FakB2 (Staphylococcus aureus) (S. aureus); experiment: BLI; His-FakB2 (2 ug/mL) immobilised on Ni-NTA biosensor tips, blocked with 0.1 mg/mL BSA; varying concentrations of untagged FakA, 5 min association, 10 min dissociation; 50 mM Tris HCl pH 7.4, 150 mM KCl, 1 mM TCEP, 5% glycerol, 10 mM MgCl2; Octet RED96e; fitted 1:1 and with a bivalent analyte model

## FakA (fatty acid kinase, Staphylococcus aureus), untagged (enzyme)
[1]
  koff: 0.000686 s⁻¹
  kon: 158000 M⁻¹ s⁻¹

## FakA H282A, H284A variant (Staphylococcus aureus) (enzyme)
[2]
  percent of protein in the dimer peak: 24%
[3]
  percent of protein in the dimer peak: 63%

## Fatty acid kinase FakA, wild type (Staphylococcus aureus) (enzyme)
[4]
  percent of protein in the dimer peak: 57%
[5]
  stoichiometry N: 2
[6]
  percent of protein in the dimer peak: 77%
[7]
  Kd: 4.34 to 15 nM and 10.6 nM
[8]
  Kd: 4.34 nM
